Assays:
[1] = biological target: the molecule itself; assay: cross-linking
[2] = biological target: Ribosomal protein L29 (Escherichia coli (endogenous in …, UniProt P0A7M6 1-63)); assay: cross-linking

B1: DnaJ, recombinant (natural protein, Escherichia coli, UniProt P08622 1-376, looked up)
chain: MAKQDYYEILGVSKTAEEREIRKAYKRLAMKYHPDRNQGDKEAEAKFKEIKEAYEVLTDSQKRAAYDQYGHAAFEQGGMGGGGFGGGADFSDIFGDVFGDIFGGGRGRQRAARGADLRYNMELTLEEAVRGVTKEIRIPTLEECDVCHGSGAKPGTQPQTCPTCHGSGQVQMRQGFFAVQQTCPHCQGRGTLIKDPCNKCHGHGRVERSKTLSVKIPAGVDTGDRIRLAGEGEAGEHGAPAGDLYVQVQVKQHPIFEREGNNLYCEVPINFAMAALGGEIEVPTLDGRVKLKVPGETQTGKLFRMRGKGVKSVRGGAQGDLLCRVVVETPVGLNERQKQLLQELQESFGGPTGEHNSPRSKSFFDGVKKFFDDLTR
binding result [1]: binds | binding result [2]: binds

Source: doi:10.1101/2024.01.22.576655 (bioRxiv, 2024)
